Measured values from US20030235860A1, “Interactions between AR, ER, TR2, and TR4” (priority 1999, published 2003).

T1: TR2 (Homo sapiens, UniProt P13056)
T1 sequence (P13056 1-603): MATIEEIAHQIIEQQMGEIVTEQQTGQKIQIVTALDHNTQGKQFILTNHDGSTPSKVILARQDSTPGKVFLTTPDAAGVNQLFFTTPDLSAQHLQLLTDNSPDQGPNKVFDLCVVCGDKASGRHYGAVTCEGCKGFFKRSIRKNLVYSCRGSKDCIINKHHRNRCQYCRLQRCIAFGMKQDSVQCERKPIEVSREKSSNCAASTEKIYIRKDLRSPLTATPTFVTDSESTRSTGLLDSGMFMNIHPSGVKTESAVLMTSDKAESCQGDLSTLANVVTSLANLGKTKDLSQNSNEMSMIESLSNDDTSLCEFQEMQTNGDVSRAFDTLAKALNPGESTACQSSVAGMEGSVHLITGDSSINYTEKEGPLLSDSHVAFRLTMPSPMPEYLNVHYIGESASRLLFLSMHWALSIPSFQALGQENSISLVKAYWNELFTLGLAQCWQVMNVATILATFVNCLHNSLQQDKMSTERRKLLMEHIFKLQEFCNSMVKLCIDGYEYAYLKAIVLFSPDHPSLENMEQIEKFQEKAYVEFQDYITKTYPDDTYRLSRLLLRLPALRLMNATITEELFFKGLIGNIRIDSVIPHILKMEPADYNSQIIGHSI

B1: GST-ER-N: GST fusion of aa 1-165 of ER (protein)
chain: MTMTLHTKASGMALLHQIQGNELEPLNRPQLKIPLERPLGEVYLDSSKPAVYNYPEGAAYEFNAAAAANAQVYGQTGLPYGPGSEAAAFGSNGLGGFPPLNSVSPSPLMLLHPPPQLSPFLQPHGQQVPYYLENEPSGYTVREAGPPAFYRPNSDNRRQGGRERL
modifications: left off: a dimerising Fc or GST; small tags and cut ends
notes: GST fusion of aa 1-165 of ER
B2: GST-ER-#I: GST fusion of ER aa 1-165 (protein)
chain: MTMTLHTKASGMALLHQIQGNELEPLNRPQLKIPLERPLGEVYLDSSKPAVYNYPEGAAYEFNAAAAANAQVYGQTGLPYGPGSEAAAFGSNGLGGFPPLNSVSPSPLMLLHPPPQLSPFLQPHGQQVPYYLENEPSGYTVREAGPPAFYRPNSDNRRQGGRERL
modifications: left off: a dimerising Fc or GST; small tags and cut ends
B3: GST-ER-DBD: GST fusion of aa 123-340 of ER (protein)
chain: PHGQQVPYYLENEPSGYTVREAGPPAFYRPNSDNRRQGGRERLASTNDKGSMAMESAKETRYCAVCNDYASGYHYGVWSCEGCKAFFKRSIQGHNDYMCPATNQCTIDKNRRKSCQACRLRKCYEVGMMKGGIRKDRRGGRMLKHKRQRDDGEGRGEVGSAGDMRAANLWPSPLMIKRSKKNSLALSLTADQMVSALLDAEPPILYSEYDPTRPFSEA
modifications: left off: a dimerising Fc or GST; small tags and cut ends
notes: GST fusion of aa 123-340 of ER
B4: GST-ER-#2: GST fusion of ER aa 123-340 (protein)
chain: PHGQQVPYYLENEPSGYTVREAGPPAFYRPNSDNRRQGGRERLASTNDKGSMAMESAKETRYCAVCNDYASGYHYGVWSCEGCKAFFKRSIQGHNDYMCPATNQCTIDKNRRKSCQACRLRKCYEVGMMKGGIRKDRRGGRMLKHKRQRDDGEGRGEVGSAGDMRAANLWPSPLMIKRSKKNSLALSLTADQMVSALLDAEPPILYSEYDPTRPFSEA
modifications: left off: a dimerising Fc or GST; small tags and cut ends

Columns and labels:
PSA = experiment: Northern blot of endogenous PSA in LNCaP cells; type: cell-based, human; conditions: LNCaP cells
Protocol: Total RNA from the DHT-treated transfected LNCaP cells was prepared by the ultracentrifugation method as described. Lee, et al., J: Biol. Chem. 273, 13437-13443 (1998). The probe was obtained from exon 3 of PSA gene and labeled with a-32p dCTP.
To rule out the potential artificial effects linked to transfected reporter assays, the expression of endogenous prostate specific antigen (PSA, an androgen target that is widely used as a marker for prostate cancer progression) in LNCaP cells was measured by Northern blot analysis. Total RNA (25 μg) from LNCaP cells, which were transfected with either pCMX-TR4 or pCMX vector using SuperFect (Qiagen), was applied into a formamide RNA gel, then transferred onto a Nylon membrane, and then hybridized with a 32P-PSA gene fragment from the exon 3. P-actin was used as an internal control. […] The level of secreted PSA protein in the medium measured by ELISA, also confirmed this conclusion. This in vivo TR4-mediated suppressive effect strongly supports the above reporter assays.
Total RNA from transfected LNCaP cells was prepared using TRIZOL reagents (Life Technology) as instructed by manufacturer. The probe was obtained from the PSA gene by PCR and labeled with 32P dCTP. Northern hybridization was performed as described previously [Mu X. M. et al. (2002) J Biol Chem 275:23877-23883].

MCF7-TR2 cells = experiment: MTT growth assay, MCF7-TR2 cells; type: cell-based; conditions: MCF7-TR2 cells; 10 nM E2, and/or 2 mg/ml doxycycline (TR2 induction)
Protocol: (A) Growth assays were performed by MTT method as instructed by manufacturer (Sigma). 5×10^3 MCF7-pBIG and MCF7-TR2 cells were seeded in 24-well plates and incubated in RPMI with 10% CD-FCS for 48 h. […] After 3- and 5-day treatment, cells were harvested for MTT assay. Data represents the relative folds of MTT O.D.570 values at day 5 divided by that at day 3. […] Cells were then trypsinized and fixed overnight in 70% Ethanol. After cells were incubated with 1 mg/ml RNase A (Sigma) and propidium iodide (Roche Molecular Biochemicals), the DNA contents of cells were measured by a flow cytometry. (C) Percentage of growth suppression by TR2. MCF7-TR2 cells were seeded at 5×10^3 cells per well in 24-well plates. […] The treatments were changed every two days. The indices of cell growth were determined by MTT assay. The MTT values from cells without doxycycline were set as 100% in each kind of treatment. Values are represented by the percentage of growth suppression from cells with doxycycline to that without doxycycline.

TR2 = biological target: T1, TR2; experiment: GST-ER fragment pull-down of [35S]-TR2; type: binding; parameters: host or cells: in vitro translation, TNT reticulocyte lysate; conditions: for Interaction with [35S]-TR2: GST-ER fragments, presence of 1 μM E2, Example 1; for Interaction with TR2: GST-fused ER peptides, presence or absence of E2, Example 2
Protocol: Fusion proteins of GST-TR2, GST-ER segments and GST were obtained by transforming expressing plasmids into BL21(DE3) pLysS competent bacteria followed with 2-hour IPTG induction. GST-proteins were then purified by mixing Glutathione-Sepharose™ 4B (Pharmacia) into bacteria lysates on a rotating disk at 4° C. for 40 mm followed by washing with 1 mL NENT buffer (20 mM Tris-HCL (pH 8.0), 100 mM NaCl, 1 mM EDTA, 6 mM MgCl2, 1 mM Dithiothretiol, 8% Glycerol, 1 mM PMSF and 0.5% (v/v) NP-40). The ER, AR, RXRA., and TR2 proteins labeled with [35S] were generated in vitro by using the TNT reticulocyte lysate system (Promega). For the in vitro interaction, the glutathione-Sepharose bound GST-proteins were resuspended with 100 μl of interaction buffer (20 mM HEPES pH 7.9, 150 mM KCl, 5 mM MgCl2. 0.5 mM EDTA, 0.5 mM Dithiothretiol, 0.1% (v/v) NP-40, 0.1% (w/v) BSA and 1 mM PMSF) and mixed with 5 μl of […] at 4° C. for 3 h. After extensive washes with NENT buffer, the bound proteins were separated on an SDS/8% PAGE and visualized by using autoradiography.
The in vitro GST pull-down assay was applied to examine the interaction between the TR2 and ER. In vitro-translated, [35S]-labeled ER, AR, and RXRα proteins were incubated with GST or GST-TR2 bound on glutathione-Sepharose beads. After extensive washing, proteins were separated on an SDS/8% PAGE and visualized by using autoradiography.
GST alone and GST fusion proteins were purified by Glutathione-Sepharose 4B beads as instructed by manufacturer (Amersham Pharmacia). The pull-down assay was performed with 5 μl of in vitro-translated [^35S]-labeled proteins as described previously (Yeh, S. et al. (2000) Proc. Natl. Acad. Sci. USA 97, 11256-61).

Molecule | Interaction with [35S]-TR2 (TR2) | Interaction with TR2 (TR2) | also measured
C[C@]12CCC(=O)C[C@@H]1CC[C@@H]1[C@@H]2CC[C@]2(C)[C@@H](O)CC[C@@H]12 [DHT, hihydroxytestosterone, reference compound] |  |  | PSA mRNA expression (PSA; 10 nM DHT, pCMV-TR2, Example 4): induces PSA mRNA expression; Induction of PSA transcript (PSA; 24 hours of DHT treatment): about 2.5 fold
C[C@H]1c2cccc(O)c2C(=O)C2=C(O)[C@]3(O)C(=O)C(C(N)=O)=C(O)[C@@H](N(C)C)[C@@H]3[C@@H](O)[C@@H]21 [doxycycline, reference compound] |  |  | Cell growth, relative folds of MTT O.D.570 at day 5 divided by day 3 (MCF7-TR2 cells): 11.1 fold
B1 | not |  | 
B2 |  | not | 
B3 | not |  | 
B4 |  | can interact | 
